# ± gives the uncertainty stated by the source.
# Assay: protein stability index of a GFP-peptide fusion (yeast GPS) (PSI 1-4); higher = more stable; sorted into four equal gates, so the index is relative within each strain
# Procedure, shortened: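 Mid-log yeast cultures in leucine-free medium, carrying a pooled plasmid library, were sorted into four equal gates by their GFP/Cherry fluorescence ratio. Each plasmid expressed Cherry along with GFP fused upstream of a tiled 17-residue yeast protein peptide. Plasmids recovered from each gate were PCR-amplified and Illumina-sequenced, with reads assigned to strains by barcodes. The protein stability index was obtained by summing each gate's read frequency weighted by its gate number.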
Sequence,protein stability index (doa10∆),protein stability index (pdr5∆),protein stability index (san1∆),protein stability index (ubr1∆)
DICQIDTNAPVAATITS [SRB8],2.29 ± 0.063,2.45 ± 0.083,2.36 ± 0.096,2.26 ± 0.049
WQYIVIDEAHRIKNEQS [ISW2],1.48 ± 0.075,1.64 ± 0.08,1.23 ± 0.11,2.24 ± 0.071
GKLVVSQEMVPRYFSEA [SIR3],3.31 ± 0.086,3.43 ± 0.17,3.38 ± 0.079,3.21 ± 0.12
GKVTDVRSTIKFQLKKV [RPL1A],3.77 ± 0.21,,3.01 ± 0.25,3.46 ± 0.13
AKRIRVSHHATTFTHCE [RPB2],3.07 ± 0.07,3.15 ± 0.074,2.48 ± 0.09,2.88 ± 0.066
IISTAIADSTHVKRITK [ECM29],2.94 ± 0.1,2.95 ± 0.092,2.6 ± 0.1,3.13 ± 0.078
PIKNRTSKSFSKLLYDD [SIN4],2.63 ± 0.07,2.73 ± 0.045,2.22 ± 0.086,2.64 ± 0.048
FGYDIPLLDIVLKADRS [YML103C/NUP188],2.14 ± 0.061,2.81 ± 0.073,2.82 ± 0.068,2.66 ± 0.057
QLIPIILRQRGPGFKFV [SRB4],2.55 ± 0.11,1.65 ± 0.073,1.47 ± 0.19,1.69 ± 0.078
ALLKLSVKLKQKRLEAG [DIS3],1.11 ± 0.077,1.37 ± 0.085,1.04 ± 0.21,1.15 ± 0.099
TAAEKKERLTKEAAAVA [RPL8A],3.25 ± 0.12,2.79 ± 0.16,3.13 ± 0.096,2.89 ± 0.15
KVKLFHGILDDLETSLS [MED2],3.17 ± 0.084,3.09 ± 0.075,3.14 ± 0.072,3.36 ± 0.055
RGYFITQEEVELPLEDF [RPB5],3.46 ± 0.19,3.01 ± 0.16,3.28 ± 0.15,3.14 ± 0.086
SMFSGLDSTGFDSTAFN [MED2],3.05 ± 0.044,3.17 ± 0.042,3.19 ± 0.034,3.104 ± 0.03
RGNKVNKQIEILTDLVN [ITC1],2.83 ± 0.11,2.75 ± 0.098,2.71 ± 0.11,2.97 ± 0.13
KPMTAYARADTHFLLNI [RRP6],2.26 ± 0.05,2.17 ± 0.047,2.34 ± 0.06,1.87 ± 0.046
PTLFDLAFNYITYDKQE [SRP68],2.39 ± 0.064,1.72 ± 0.064,1.77 ± 0.081,1.54 ± 0.059
SEAKRTKFSNPAIPPVI [BRR2],2.13 ± 0.06,2.25 ± 0.054,2.45 ± 0.067,2.44 ± 0.056
ESQQQDESLKDEATVPN [SWI3],3.19 ± 0.079,3.36 ± 0.09,3.31 ± 0.15,3.21 ± 0.098
RDREPKEPVALIETVRQ [RPN2],3.32 ± 0.081,3.47 ± 0.12,3.12 ± 0.079,3.34 ± 0.071
LISRLCPNSTGAELRSV [RPT1],1.85 ± 0.043,1.77 ± 0.047,1.84 ± 0.073,1.73 ± 0.042
CYLRWQHLRNEHGMNAP [SNF2],3.15 ± 0.072,3.33 ± 0.1,3.4 ± 0.087,2.9 ± 0.066
IKKYASVVRVLVHTQIR [RPL3],1.87 ± 0.064,2.32 ± 0.074,1.62 ± 0.11,2.13 ± 0.044
SYNNTGISDDENDEEDI [RRP4],2.85 ± 0.11,3.27 ± 0.12,2.84 ± 0.086,2.96 ± 0.099
SLQRSKSSFVKESAVIS [SMC1],2.04 ± 0.11,2.27 ± 0.047,2.17 ± 0.067,2.29 ± 0.039
DGTSTEKTFLHLPCTIE [RPN8],2.7 ± 0.1,1.78 ± 0.055,2.1 ± 0.065,1.41 ± 0.044
KDLVTENAYDNPLADAE [PRE4],3.11 ± 0.09,3.34 ± 0.12,3.32 ± 0.11,3.21 ± 0.063

Sequence,protein stability index (doa10∆),protein stability index (pdr5∆),protein stability index (san1∆),protein stability index (ubr1∆)
VENELLQVDVDIAGQRD [RRP42],1.36 ± 0.25,2.12 ± 0.28,,1.14 ± 0.19
AEEAIVNAMRVLYYRDA [PRE4],,3.33 ± 0.17,2.73 ± 0.2,
INSIDTTESSDLKEGLQ [GRR1],2.54 ± 0.062,2.6 ± 0.046,3.18 ± 0.037,3.05 ± 0.032
SSSNGGGSAKPSLKFKP [RPC53],2.61 ± 0.13,3 ± 0.14,2.74 ± 0.093,3.34 ± 0.091
ALLIEVFTALLRLFINE [ITC1],2.11 ± 0.087,1.53 ± 0.076,1.42 ± 0.097,1.24 ± 0.051
LAFDKLNVPVFQIVIEP [ARP7],2.12 ± 0.058,2.23 ± 0.061,1.8 ± 0.079,1.7 ± 0.056
YSSKPYKVDNMTRILPQ [RPN2],2.62 ± 0.073,2.88 ± 0.072,2.62 ± 0.082,2.31 ± 0.067
VQEQLSKNRIIVEADEK [RET1],1.52 ± 0.088,1.37 ± 0.052,1.65 ± 0.14,1.4 ± 0.062
KDSYINANTIETAKMIE [FAS2],3.14 ± 0.045,3.07 ± 0.044,3.18 ± 0.032,3.16 ± 0.044
LSHENNVMLEKIKDNKE [RPT5],2.49 ± 0.063,2.9 ± 0.054,2.46 ± 0.054,2.71 ± 0.045
GISKKTRIAGVVYHPSN [RPS8A],2.53 ± 0.03,2.456 ± 0.024,2.41 ± 0.032,2.403 ± 0.021
LLLSRVRADDLSTRFNI [RRP43],3.24 ± 0.091,3.07 ± 0.063,3.02 ± 0.06,3 ± 0.049
ETKTKKEKIKGLQDEIM [SMC4],3.12 ± 0.11,3.32 ± 0.13,3.13 ± 0.06,3.38 ± 0.068
LEGEEIKSEEKKGKSSD [RPN1],2.19 ± 0.077,2.17 ± 0.07,3.05 ± 0.084,2.4 ± 0.043
PSFTFGGSTTNNTTTTS [YOR098C/NUP1],3.04 ± 0.099,3.19 ± 0.091,3.08 ± 0.056,3.36 ± 0.073
SKHNERNKSAANNDINS [YDL088C/ASM4],,3.21 ± 0.12,,2.85 ± 0.12
SSKLVDVYTLPSYVHFK [YML103C/NUP188],1.82 ± 0.047,1.61 ± 0.046,1.69 ± 0.061,1.46 ± 0.036
PEGYKAKSISTSAKEPS [RPO31],1.39 ± 0.085,1.51 ± 0.077,1.45 ± 0.19,1.86 ± 0.09
ENYDAKIELEKKEKWAR [YIL149C/MLP2],3.2 ± 0.08,3.2 ± 0.12,2.67 ± 0.12,3.12 ± 0.067
TVIRGNSIISLEALDAI [SMX2],2.79 ± 0.075,2.43 ± 0.09,2.15 ± 0.11,2.57 ± 0.055
YLAENPDPNFENSIGYN [PRP8],3.28 ± 0.065,3.08 ± 0.061,3.12 ± 0.088,3.19 ± 0.054
KLYKTPIPIPAFADRLG [PRE10],1.5 ± 0.11,1.29 ± 0.076,1.04 ± 0.18,1.46 ± 0.2
DEEAAGASTVMKTKTIN [PRP8],3.34 ± 0.089,3.12 ± 0.071,3.28 ± 0.063,3.19 ± 0.061
LLKLTKVFIRESLSLKN [YML103C/NUP188],1.72 ± 0.1,1.89 ± 0.12,1.3 ± 0.22,1.83 ± 0.17
TKNLSILTSKVNAIKNE [DSN1],1.66 ± 0.076,2.13 ± 0.056,2.39 ± 0.11,1.69 ± 0.06
YSRILKSMGRKCFDDIE [YCG1],3.16 ± 0.17,2.35 ± 0.12,2.92 ± 0.21,2.16 ± 0.13

# Reference: the supplement of paper PMC9732359
